Patent publication US20110251106A1 (NEXTERA, published 2011)

Biological target: T1, Streptavidin on Dynabeads MyOne-Streptavidin magnetic beads (UniProt P22629 37-163, limits assumed)
T1 construct: also called SA; SA beads
Experiment: streptavidin bead capture of virions, anti-M13 MAb-HRP detection

T1 sequence (P22629 37-163 limits assumed): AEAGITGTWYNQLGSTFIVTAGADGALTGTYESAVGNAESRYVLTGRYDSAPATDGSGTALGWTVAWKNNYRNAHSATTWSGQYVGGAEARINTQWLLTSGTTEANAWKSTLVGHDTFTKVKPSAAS

B1: wild type pVII on M13K07 wt helper phage virions (other)
chain: MEQVADFDTIYQAMIQISVVLCFALGIIAGGQR
notes: Control virion with no tag on pVII; Also used here for phagemid virions packaged with wt M13K07; also called wildtype M13K07; wt pVII
B1: no binding.
